# From the nanobody polyreactivity screen of Harvey et al. (2022)
# Assay: yeast display, Sf9 membrane polyspecificity reagent, FACS + sequencing; frameworks hold sequencing errors
# How it was run: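 Genes from sorted yeast were amplified by colony PCR, read by MiSeq 2 × 250 sequencing and filtered on CDR length. These cells carried a synthetic nanobody library in Saccharomyces cerevisiae BJ5465 and were sorted by FACS into low and high (top ~1%) gates on anti-HA and streptavidin fluorescence. Polyreactivity is labelled according to the gate of origin.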
row,Sequence,polyreactivity (PSR sort gate)
1,QVQLVESGGGLVQAGGSLRLSCAASGSIFYGNTMGWYRQAPGKERELVAAIRSVGRTYYADSVKGRFTISRDNAKNTVYLQMNSLKPEDTAVYYCAADPRSYFTSEYWGQGTQVTVSS,high polyreactivity
2,QVQLVESGGGLVQAGGSLRLSCAASGSIFYGYAMAWYRQAPGKERELVAAITRSGGSTYYADSVKGRFTISRDNAKNTVYLQMNSLKPEDTAVYYCAAVSRSRRMDYWGQGTQVTVSS,high polyreactivity
3,QVQLVESGGGLVQAGGSLRLSCAASGSIFYGYAMGWYRQAPGKERELVAAITSSGTRTYYADSVKGRFTISRDNAKNTVYLQMNSLKPEDTAVYYCAADGPGYQYDYWGQGTQVTVSS,high polyreactivity
4,QVQLVESGGGLVQAGGSLRLSCAASGSIFYGYAMGWYRQAPGKERELVAAITTSGGSTYYADSVKGRFTISRDNAKYTVYLQMNSLKPEDTAVYYCAAVTYWPGGYYWGQGTQVTVSS,high polyreactivity
5,QVQLVESGGGLVQAGGSLRLSCAASGSIFYGYDMGWYRQAPGKERELVAAITIGGGTTYYADSVKGRFTISRDNAKNTVYLQMNSLKPEDTAVYYCAAEFYYTIYSNKVGYDYWGQGTQVSVSS,high polyreactivity
6,QVQLVESGGGLVQAGGSLRLSCAASGSIFYGYVMGWYRQAPGKERELVAAISRSGGRTYYADSVKGRFTISRDNAKNTVYLQMNSQKPEDTAVYDCNARQAGTPYKYAYYGRYYWGQGTQVTVSS,high polyreactivity
7,QVQLVESGGGLVQAGGSLRLSCAASGSIFYHYVMGWYRQAPGKDRELVAGISWSGVSTYYADSVKGLFTISRDNAKNTVYLQMNSLKPEDTAVYYCAAVYRQSRLHTFGYWGQGTQVTVSS,high polyreactivity
8,QVQLVESGGGLVQAGGSLRLSCAASGSIFYIYAMGWSRQAPGKERELVASITFSGDITYYADSVKGRFTISRDNAKNTVYLQMNSLKPEDTAVYYCNTRTPYWFKSDYWGQGTQVTVSS,low polyreactivity
9,QVQLVESGGGLVQAGGSLRLSCAASGSIFYIYAMGWYRQAPGKERELVAAINWSGGDTYYADSVKGRFTISRDNAKNTVYLQMNSLKPEDTAVYYCAALLDSEYEYWGQGTQVTVSS,high polyreactivity
10,QVQLVESGGGLVQAGGSLRLSCAASGSIFYIYAMGWYRQAPGKERELVAAISWSGSSTYYADSVKGRFTISRDNAKHTVYLQMNSLKPEDTAVYYCAADTGYGVRYYYWGQGTQVTVSS,high polyreactivity
11,QVQLVESGGGLVQAGGSLRLSCAASGSIFYIYAMGWYRQAPGKERELVAAITSSVGRTYYADSVKGRFTISRDNAKNTFYLQMNSLKAEDTAVYYCAADYYYSQVAYVYWGHGTQVTVSS,high polyreactivity
12,QVQLVESGGGLVQAGGSLRLSCAASGSIFYKYAMGWYRQAPGKERELVAAISGSGGRTYYADSVKGRFTISRDNAKNTVYLQMNSLKPEDTAVYYCAAAKRTWRSDYWGQGTQVTVSS,high polyreactivity
13,QVQLVESGGGLVQAGGSLRLSCAASGSIFYKYTMGWYRQAPGKERELVAAITRSGGSTYYADSVKGRFTISRDNAKNTVYLQMNSLKPEDTAVYYCAAERASFRYQDYYIYDYWGQGTQVTVSS,high polyreactivity
14,QVQLVESGGGLVQAGGSLRLSCAASGSIFYLNAMGWYRQAPGKERDLVAAIRWSGGSTRYADSVKGRCTISRDNAKNTVYLQMNSLKPEDTAVYYCAKYNPVLVYHWWYYYWGQGTQVTVSS,high polyreactivity
15,QVQLVESGGGLVQAGGSLRLSCAASGSIFYLNARGWYRQAPGKERELVASINRGGITYYADSVKGRFTISRDNAKNTVYLQMNSLKPEDTAVYYCAARSPYVSYRSNYYYWGQGTQVTVSS,high polyreactivity
16,QVQLVESGGGLVQAGGSLRLSCAASGSIFYLYAMGWYRQAPGKERELVAAISESGSTTYYADSVKGRFTISRDNAKNTVYLQMNSLKPEDTAVYYCARLGTYTVVTYDYWGQGTQVTVSS,low polyreactivity
17,QVQLVESGGGLVQAGGSLRLSCAASGSIFYLYAMGWYRQAPGKERELVAAITSIGGSTYADSVKGRFTISRDNAKNTVYLQMYSLKPEDTAVYYCNTDEYPLTVQVQYYYWGQGTQVTVSS,low polyreactivity
18,QVQLVESGGGLVQAGGSLRLSCAASGSIFYNAMGWYRQAPGKERELVAAISQRGTRTYYADSVKGRFTISRDNAKKTVYLQMNSLKPEDTAVYYCNRGGWRQYDSWGQGTQVTVSS,high polyreactivity
19,QVQLVESGGGLVQAGGSLRLSCAASGSIFYNNAMGWYRQAPGKERELVAAITIGGSTNYADSVKGRFTISRDNAKNTVYLQMNSLNPEDTAVYYCAAAVLYWVGYGYWGQGTQVTVSS,low polyreactivity
20,QVQLVESGGGLVQAGGSLRLSCAASGSIFYNYAMGWYRQAPGKEREFVAGITRSGGTTSYADSVKGRFTISRDNAKNTVYLQMNSLKPEDTAVYYCAAVVYLQAWYGYWDYYYWGQGTQVTVSS,high polyreactivity
21,QVQLVESGGGLVQAGGSLRLSCAASGSIFYPNAMGWYRQAPGKEREFVAAISKSGGNTYYADSVKGRFTISRDNAKNTVYLQMNSLKPEDTAVYYCAARTQAFSRKGYGYWGQGTQVTVSS,high polyreactivity
22,QVQLVESGGGLVQAGGSLRLSCAASGSIFYPYAMGWYRQAPGKERELLASITINDGSTYYADSVKGRFTISRDNAKNTVYLQMNSLKPEDTAVYYCNVEPVPGFGSEYEYWGQGTQVTVSS,low polyreactivity
23,QVQLVESGGGLVQAGGSLRLSCAASGSIFYPYAMGWYRQAPGKERELVAGITYRAGSTYYADSVKGRFTISRDNAKNTVYLQMNSLKPEDTAVYYCAASQSYAFDWGQGTQVTVSS,high polyreactivity
24,QVQLVESGGGLVQAGGSLRLSCAASGSIFYPYAMGWYRQAPGKERELVATISSGGRTNYADSVKGRFTISRDNAKNTVYLQMNSLKPEDTAVYYCAKDRYPTSWWFRRRDYWGQGTQVTVSS,high polyreactivity
25,QVQLVESGGGLVQAGGSLRLSCAASGSIFYPYAMGWYRQAPGKERQLVAAISYSGGSTYYADSVKGRFTISRDNAKNTVYLQMNSLKPEDTAVYYCAADVTAGDGRNDYWGIGTQVTVSS,low polyreactivity
26,QVQLVESGGGLVQAGGSLRLSCAASGSIFYPYTMGWYRQAPGKEREFVAAITGGGGRTYYADSVKGRFTISRDNAKNTVYLQMNSLKPEDTAVYYCATDTYDVNVWELGMDYWGQGTQVTVSS,low polyreactivity
27,QVQLVESGGGLVQAGGSLRLSCAASGSIFYPYTMGWYRQAPGKETEFVARITWSGGSTYYADSVKGRFTISRDNAKNTVYLQMNSLKPEDSAVYYCARVAWSESDWQKMDYWGQGTQVTVSS,high polyreactivity
28,QVQLVESGGGLVQAGGSLRLSCAASGSIFYQNALGWYRQAPGKETELVAAMSRSGGSTYYADSVKGRFTISRDNAKNTVYLQMNSLKPEDTAVYYCAARISRQRSYSRDYWGQGTQVTVSS,high polyreactivity
29,QVQLVESGGGLVQAGGSLRLSCAASGSIFYRNAMGWYRQAPGKERELVAAISASGGSTYYADSVKGRFTISRDNAKNTVYLQMNSLKPEDTAVYYCAASRYYSRYDYWGQGTQVTVSS,high polyreactivity
30,QVQLVESGGGLVQAGGSLRLSCAASGSIFYRNAMGWYRQAPGKERELVAAISGRGGSTYYADSVKGRFTISRDYAKNTVYLQMYSLKPEDTAVYYCAKDHYRERKYDYWGQGTQVTVSS,low polyreactivity
